# Laboratory results as given in paper PMC10711807 (The Journal of Cell Biology, 2023).
# B1: GST-BLK (B lymphoid tyrosine kinase), recombinant from bacteria (enzyme)
# chain: not shown
# modifications: autophosphorylated as purified (Fig. S5 C); sites not told for this sample
# Molecular target: TOLLIP, recombinant from bacteria, biotinylated (human, UniProt Q9H0E2 1-274, biotin (biotinylated TOLLIP; site not told))
# Assay: BLI
binder,measurement,value
B1,Kd,~8.39 nM
